Data: patent US20260347455 (published 2026)
Values belong to the binder of their own block, whether it stands above or below them.

What was measured:
[1] = target: T1, human BMP6 (Peprotech 120-06) (human); assay: SPR, 37C, pH 7.6
T1 chain: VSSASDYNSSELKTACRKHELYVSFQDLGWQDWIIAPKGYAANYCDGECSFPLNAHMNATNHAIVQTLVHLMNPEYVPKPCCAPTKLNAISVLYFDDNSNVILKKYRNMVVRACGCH

[2] = target: T1, human BMP6 (Peprotech 120-06); assay: SPR, 37C, pH 7.6, bivalent (relative KD)

Kd [1]: 0.14 nM
B1: CL-58838 Fab (antibody, V domains shown)
VH: QVQLVESGGGLVKPGGSLRLSCAASGFTFSDYYMSWIRQAPGKGLEWVSYISISGSTIYYADSVKGRFTISRDNAMDSLYLQMNSLRAEDTAVYYCARRSSGWYDYWGQGTLVTVSS
VL: EIVLTQSPGTLSLSPGERATLSCWASQRVVYRYLAWYQRKPGQAPRLLIYGAFNRATGIPDRFSGSGSGTDFSLTISRLEPEDFAVYYCHQYGSSPPTFGQGTKVEIK

Kd [2]: 0.07 nM
B2: CL-58838 IgG4 (antibody, V domains shown)
VH: B1 VH
VL: EIVLTQSPGTLSLSPGERATLSCWASQRVVYRYLAWYQRKPGQAPRLLIYGAFNRATGIPDRFSGSGSGTDFSLTISRLEPEDFAVYYCHQYGSSPPTFGQGTKVEIKR
